We go through four molecules from publication PMC3836750, “A Novel Antibody Humanization Method Based on Epitopes Scanning and Molecular Dynamics Simulation” (PLoS ONE, 2013).

Assay [1] concerns the target refined 1-17-2 antibody (humanized antibody with back mutation of the 5 key residues L38, L43, L45, L71 and H77) (rat | human). The assay can be described thus: SPR; BIACORE T200, CM5 chip; antibody captured on immobilized anti-human IgG (Fc) (human antibody capture kit); DEC-S solution passed through, 6 concentrations; regeneration 3 M magnesium chloride; KD = kd/ka.
Assay [2] addresses T1, DEC-205 protein (DEC-S) (Homo sapiens, UniProt O60449).
T1 construct: DEC-205 protein in solution (DEC-S) used as SPR analyte; DEC-S is probably a soluble form of DEC-205
The assay can be described thus: SPR; BIACORE T200, CM5 chip; murine (rat) antibody immobilized by amine coupling; DEC-205 protein 500 to 15.625 nM, 240 sec injection at 30 µl/min, 600 sec dissociation; regeneration Glycine-HCl pH 2.5; KD = kd/ka. To be noted: both partners purified. In general terms: SPR reads the build-up and loss of mass on a sensor chip optically.

The target in assay [3] is T1, DEC-205 protein (DEC-S). Briefly: SPR; BIACORE T200, CM5 chip; antibody captured on immobilized anti-human IgG (Fc) (human antibody capture kit); DEC-S solution passed through, 6 concentrations; regeneration 3 M magnesium chloride; KD = kd/ka. To be noted: both partners purified.

T1 sequence (O60449 28-1722): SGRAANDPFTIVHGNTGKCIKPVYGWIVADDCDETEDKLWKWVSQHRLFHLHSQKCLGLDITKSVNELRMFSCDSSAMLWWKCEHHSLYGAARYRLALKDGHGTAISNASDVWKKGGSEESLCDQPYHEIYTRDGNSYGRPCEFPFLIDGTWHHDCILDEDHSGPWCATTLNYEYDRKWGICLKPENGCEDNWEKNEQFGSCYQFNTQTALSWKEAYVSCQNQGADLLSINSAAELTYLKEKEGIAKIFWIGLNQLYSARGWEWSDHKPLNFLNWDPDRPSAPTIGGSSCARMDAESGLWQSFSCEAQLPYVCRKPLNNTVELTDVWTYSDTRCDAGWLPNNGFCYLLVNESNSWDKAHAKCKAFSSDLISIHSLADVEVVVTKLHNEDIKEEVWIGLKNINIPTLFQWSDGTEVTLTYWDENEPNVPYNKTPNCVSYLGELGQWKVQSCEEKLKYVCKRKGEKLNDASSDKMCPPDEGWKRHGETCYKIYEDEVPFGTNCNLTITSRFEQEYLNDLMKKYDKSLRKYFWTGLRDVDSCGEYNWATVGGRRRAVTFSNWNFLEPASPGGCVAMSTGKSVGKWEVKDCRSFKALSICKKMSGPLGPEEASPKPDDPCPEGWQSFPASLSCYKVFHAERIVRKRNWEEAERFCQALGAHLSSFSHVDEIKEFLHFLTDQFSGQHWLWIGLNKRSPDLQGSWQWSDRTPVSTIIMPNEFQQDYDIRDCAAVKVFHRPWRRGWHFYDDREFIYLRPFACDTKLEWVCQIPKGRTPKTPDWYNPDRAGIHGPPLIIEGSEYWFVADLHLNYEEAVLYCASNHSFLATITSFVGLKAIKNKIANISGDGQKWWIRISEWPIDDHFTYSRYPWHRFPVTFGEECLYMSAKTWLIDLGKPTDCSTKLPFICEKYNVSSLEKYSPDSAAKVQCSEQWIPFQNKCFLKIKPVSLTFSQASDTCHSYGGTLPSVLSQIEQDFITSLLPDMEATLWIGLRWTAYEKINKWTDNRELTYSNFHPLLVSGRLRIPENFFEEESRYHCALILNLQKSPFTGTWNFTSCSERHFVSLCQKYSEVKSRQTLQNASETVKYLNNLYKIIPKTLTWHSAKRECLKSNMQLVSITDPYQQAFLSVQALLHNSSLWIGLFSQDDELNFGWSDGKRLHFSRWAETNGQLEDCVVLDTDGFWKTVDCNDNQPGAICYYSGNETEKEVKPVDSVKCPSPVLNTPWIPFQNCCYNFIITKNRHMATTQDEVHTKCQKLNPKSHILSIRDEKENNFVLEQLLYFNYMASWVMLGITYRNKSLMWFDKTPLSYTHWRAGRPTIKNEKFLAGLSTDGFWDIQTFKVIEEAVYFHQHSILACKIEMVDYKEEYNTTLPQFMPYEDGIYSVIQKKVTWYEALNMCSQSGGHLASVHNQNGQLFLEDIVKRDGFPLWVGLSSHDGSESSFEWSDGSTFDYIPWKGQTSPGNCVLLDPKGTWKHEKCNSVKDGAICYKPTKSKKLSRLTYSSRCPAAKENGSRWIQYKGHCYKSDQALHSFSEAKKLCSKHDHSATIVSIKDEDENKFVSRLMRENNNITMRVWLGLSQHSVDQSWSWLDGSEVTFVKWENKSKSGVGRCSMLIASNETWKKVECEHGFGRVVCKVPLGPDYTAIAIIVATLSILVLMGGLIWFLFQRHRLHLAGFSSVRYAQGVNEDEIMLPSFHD

The term Kd denotes the equilibrium constant for the complex coming apart. As a reminder, the koff is the first-order rate constant of dissociation. For orientation: kon means a measure of how fast the partners come together. In assay [1], “DEC-205 protein (DEC-S) (from UniProt O60449 28-1722) (receptor)” gave a Kd of 16.7 nM, an off-rate constant (koff) of 0.000137 s⁻¹ and a kon of 8220 M⁻¹ s⁻¹.

B1: 1-17-2 rat anti-human DEC-205 monoclonal antibody (antibody, V domains shown)
VH: EVQLVESGGGLVQPGRSLKLSCAASGFTFSHYYMAWVRQAPTKGLEWVAYISTDGGTTYYRDSVKGRFTISRDNARSTLYLQVDSLRSEDTATYYCTTGQPGYNLDYFDYWGQGVMVTVSS
VL: DIQMTQSPASLSASLEEIVTITCQASQDIGYWLAWYQLKPGKSPQLLIYGATSLADGVSSRFSGSRSGTQYSLKISRLQVEDIGIYYCQQASSVPWTFGGGTKLELK
notes: VH of rat antibody 1-17-2; rat IgG1 heavy chain constant region (isotype IgG1 stated); VL of rat antibody 1-17-2; rat kappa light chain constant region (isotype kappa stated); Rat IgG1, kappa; also called Rat Ab; rat mAb; source: expressed in vitro and purified; hybridoma 1-17-2 from rats immunized with DEC-1-YB2/0 cells
Consider B1, for which, in the assay with DEC-205 protein (DEC-S) [2], the Kd stood at 29.7 nM, the koff was 0.000185 s⁻¹ and the kon amounted to 6290 M⁻¹ s⁻¹.

B2: humanized 1-17-2 antibody (30 mutations based on the chimeric antibody) (antibody, V domains shown)
VH: EVQLVESGGGLVQPGRSLRLSCAASGFTFSHYYMAWVRQAPGKGLEWVAYISTDGGTTYYRDSVKGRFTISRDNSKNTLYLQMNSLRSEDTAVYYCTTGQPGYNLDYFDYWGQGTLVTVSS
VL: DIQMTQSPSSLSASVGDRVTITCQASQDIGYWLAWYQQKPGKAPKLLIYGATSLADGVPSRFSGSGSGTDFTLTISSLQPEDFATYYCQQASSVPWTFGGGTKLEIK
notes: human heavy chain constant region contained in the MH vector; human light chain constant region contained in the MK vector; Humanized VL and VH fragments were synthesized; also called Hu Ab; humanized antibody
Turning to B2, in the assay with DEC-205 protein (DEC-S) [3], the dissociation constant (Kd) amounted to 373 nM, the koff worked out at 0.00105 s⁻¹ and the kon was 2930 M⁻¹ s⁻¹.

B3: chimeric 1-17-2 antibody (variable regions of 1-17-2 with constant regions of a human antibody) (antibody, V domains shown)
VH: EVQLVESGGGLVQPGRSLKLSCAASGFTFSHYYMAWVRQAPTKGLEWVAYISTDGGTTYYRDSVKGRFTISRDNARSTLYLQVDSLRSEDTATYYCTTGQPGYNLDYFDYWGQGVMVTVSS
VL: DIQMTQSPASLSASLEEIVTITCQASQDIGYWLAWYQLKPGKSPQLLIYGATSLADGVSSRFSGSRSGTQYSLKISRLQVEDIGIYYCQQASSVPWTFGGGTKLELK
notes: as the VH of m1; human heavy chain constant region contained in the MH vector; as the VL of m1; human light chain constant region contained in the MK vector; Captured by anti-human IgG (Fc) in SPR, so a human IgG; Vectors MH and MK from Dr. Linqi Zhang; also called Chi Ab; chimeric antibody
In the assay with DEC-205 protein (DEC-S) [3], B3 came in with a Kd of 35.4 nM, a koff of 0.000273 s⁻¹ and an on-rate (kon) of 8040 M⁻¹ s⁻¹.
